This note sets out measurements from US20130071379A1 (Merck Sharp & Dohme, published 2013).

Where a chain is given by its changes, count along the chain named.

The term IC50 denotes the concentration needed to halve the response being measured. As a reminder, the Kd is the concentration at which binding is half-saturated. What is called koff is the rate constant with which the complex falls apart. High values mean fast dissociation, low ones slow dissociation. A word on the kon: it is the second-order rate constant of association. A low value points to slow association.

Experiment [1] has as its target T1, hPCSK9v5His (human, UniProt Q8NBP7 31-692). In words: cell-based or functional assay.
The target in experiment [2] is T2, mPCSK9v5His (mouse, UniProt Q80W65 35-694). Kind of experiment: cell-based or functional assay.
The target in experiment [3] is T3, AlexaFluor647-labeled PCSK9.
T3 construct: Used in the TR-FRET assay and in the internalization assay; also called AF647-PCSK9; AF-labeled PCSK9
In words: TR-FRET competition assay: 1B20 titrated against 10 nM AF647-PCSK9; the blocked ligand is Eu-sLDLR (about 4 nM); the Ratio falls from about 6200 to about 1000 (right curve, squares). The procedure: (§1) AlexaFluor647-labeled PCSK9 (final concentration 10 nM) was combined with varying amounts of 1B20 and to this was added Eu(8044)-labeled LDLR ectodomain to a final concentration of ˜4 nM (sufficient to give ˜20,000 counts at F1620 nM on the Rubystar) in […] (pH 7.4), 150 mM NaCl, 0.1 mM CaCl₂, 0.05% (w/v) BSA in a total volume of 50 μL using 96 well black Dynatech U bottom plates. After at least 90 minutes of equilibration, samples were read in a Rubystar reader (BMG Corp.) using 20 flashes per well, a 50 usec integration delay, and a 200 usec total integration time. Data were expressed as the ratio of (F1665/F1620×10000) and an IC₅₀ for 1B20 was determined from the inflection point of a sigmoidal dose-response curve using a standard four parameter fit.

Experiment [4] addresses T1, hPCSK9v5His. In words: SPR Biacore 2000; Fab captured on anti-Fab IgG, PCSK9 in flow. The procedure:
(§2) Anti-Fab IgG (Human specific) (Sigma, catalog #15260) was covalently coupled to surfaces 1 and 2 of a Sensor Chip CM5 via primary amine groups, using the immobilization wizard with the “Aim for immobilization” option using Biacore™ Amine Coupling Kit (cat#BR-1000-50. A target immobilization of 5000 RU was specified. The wizard uses a 7 minute activation with a 1:1 mixture of 100 mM NHS (N-Hydroxysuccinimide) and 400 mM EDC (1-ethyl-3-(3-dimethylaminopropyl)-carbodiimide), injects the ligand in several pulses to achieve the desired level, then deactivates the remaining surface with a 7 minute pulse of ethanolamine.
(§3) Anti-PCSK9 Fabs were captured on capture surface 2, and surface 1 was used as a reference for kinetic studies of Fab:PCSK9 interactions. […] 5-10 concentrations of hPCSK9v5H is or mPCSK9v5His antigens were flowed across the surface at […] for 3-4 minutes. 15-60 minutes dissociation time was allowed before regeneration of the Anti-Fab surface with a 30 second pulse of 10 mM glycine pH 2.0.
(§4) BiaEvaluation Software was used to evaluate the sensograms from the multiple concentration of PCSK9 antigen analyzed with each Fab, to estimate the kinetics constants of the Fab:PCSK9 interactions.
Background: Surface plasmon resonance follows binding to a sensor surface in real time, without labels.

Experiment [5] addresses T2, mPCSK9v5His. The description is as above. The procedure: as §2, §3, §4
Experiment [6] addresses T3, AlexaFluor647-labeled PCSK9. Kind of experiment: TR-FRET competition assay: 1B20 titrated against 10 nM AF647-PCSK9; the blocked ligand is Eu-sLDLR (about 4 nM); the Ratio falls from about 6200 to about 1000 (left curve, circles). The procedure: as §1
The target of experiment [7] is T1, hPCSK9v5His. Kind of experiment: SPR Biacore 2000; IgG captured on goat anti-human IgG, PCSK9 in flow. The procedure:
(§5) A goat Anti-Human IgG (Caltag, catalog #H10700) was covalently coupled to surfaces 1 and 2 of a Sensor Chip CM5 via primary amine groups, using the immobilization wizard with the “Aim for immobilization” option using Biacore™ Amine Coupling Kit (cat#BR-1000-50. A target immobilization of 5000 RU was specified. The wizard uses a 7 minute activation with a 1:1 mixture of 100 mM NHS (N-Hydroxysuccinimide) and 400 mM EDC (1-ethyl-3-(3-dimethylaminopropyl)-carbodiimide), injects the ligand in several pulses to achieve the desired level, then deactivates the remaining surface with a 7 minute pulse of ethanolamine.
(§6) Anti-PCSK9 IgGs were captured on capture surface 2, and surface 1 was used as a reference for kinetic studies of IgG:PCSK9 interactions. IgG was captured by flowing a 10 nM solution at 10 μl/min for 1-1.5 minutes to reach a target RL for an R max of 100-150 RU for the reaction. 5-10 concentrations of hPCSK9v5His or mPCSK9v5His antigens were flowed across the surface at 30 or 60 μl/minute for 4 minutes. 15-60 minutes dissociation time was allowed before regeneration of the Anti-IgG surface with a 60 second pulse of 10 mM Glycine pH 1.7.
(§7) BiaEvaluation Software was used to evaluate the sensograms from the multiple concentration of PCSK9 antigen analyzed with each IgG, to estimate the kinetics constants of the IgG:PCSK9 interactions.

For experiment [8], the target named is T2, mPCSK9v5His. The experiment is described as above. The procedure:
as §5, §6, §7

Experiment [9] concerns the target T1, hPCSK9v5His. In words: Bio-Rad ProteOn SPR, Fab against human PCSK9-V5-His. The procedure: Additional site-directed mutant variants of 1B20 were generated (mutations in the heavy chain) and are disclosed herein as SEQ ID NOs: 102-107. Kds of site-directed mutant variants of 1B20 Fabs were determined using a Bio-Rad ProteOn; with affinity being measured against human PCSK9-V5-His. The methodologies for measuring Fab affinities are essentially the same as previously described for Biacore®.

T1 sequence (Q8NBP7 31-692 limits assumed): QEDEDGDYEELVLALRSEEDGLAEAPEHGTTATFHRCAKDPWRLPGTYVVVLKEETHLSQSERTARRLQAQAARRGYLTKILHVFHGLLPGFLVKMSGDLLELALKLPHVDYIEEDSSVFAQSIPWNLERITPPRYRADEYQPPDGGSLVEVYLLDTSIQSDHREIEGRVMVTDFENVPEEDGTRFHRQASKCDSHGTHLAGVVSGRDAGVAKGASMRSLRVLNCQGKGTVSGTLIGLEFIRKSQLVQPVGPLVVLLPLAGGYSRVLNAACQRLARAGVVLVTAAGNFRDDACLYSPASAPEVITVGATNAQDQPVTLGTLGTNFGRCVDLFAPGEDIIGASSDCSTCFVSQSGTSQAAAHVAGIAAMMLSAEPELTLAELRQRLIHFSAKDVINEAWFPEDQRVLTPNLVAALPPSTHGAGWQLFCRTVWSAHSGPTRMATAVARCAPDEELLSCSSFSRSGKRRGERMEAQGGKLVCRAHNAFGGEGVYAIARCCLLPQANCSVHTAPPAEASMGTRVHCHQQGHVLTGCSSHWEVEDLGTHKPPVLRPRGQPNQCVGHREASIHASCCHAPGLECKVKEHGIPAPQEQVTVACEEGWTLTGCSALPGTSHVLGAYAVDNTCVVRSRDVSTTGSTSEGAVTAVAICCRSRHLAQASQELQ
T2 sequence (Q80W65 35-694 limits assumed): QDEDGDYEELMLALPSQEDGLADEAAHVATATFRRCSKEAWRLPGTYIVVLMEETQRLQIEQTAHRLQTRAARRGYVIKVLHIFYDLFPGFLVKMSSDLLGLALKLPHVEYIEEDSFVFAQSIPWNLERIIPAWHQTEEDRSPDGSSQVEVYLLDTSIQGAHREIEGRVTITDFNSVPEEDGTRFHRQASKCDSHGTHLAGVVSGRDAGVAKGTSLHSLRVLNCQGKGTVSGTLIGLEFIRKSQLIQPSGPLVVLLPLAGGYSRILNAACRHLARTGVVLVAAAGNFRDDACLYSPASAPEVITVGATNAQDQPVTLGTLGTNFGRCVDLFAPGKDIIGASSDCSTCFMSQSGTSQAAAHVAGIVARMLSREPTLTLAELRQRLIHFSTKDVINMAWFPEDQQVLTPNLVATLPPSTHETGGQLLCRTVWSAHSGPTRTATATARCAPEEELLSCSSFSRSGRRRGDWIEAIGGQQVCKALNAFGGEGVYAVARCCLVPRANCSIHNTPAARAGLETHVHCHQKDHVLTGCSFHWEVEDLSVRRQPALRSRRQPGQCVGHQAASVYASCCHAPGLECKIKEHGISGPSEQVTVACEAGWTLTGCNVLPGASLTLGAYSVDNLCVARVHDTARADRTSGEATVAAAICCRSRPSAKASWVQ
T3 sequence (Q8NBP7 153-692, chain 1 of 2): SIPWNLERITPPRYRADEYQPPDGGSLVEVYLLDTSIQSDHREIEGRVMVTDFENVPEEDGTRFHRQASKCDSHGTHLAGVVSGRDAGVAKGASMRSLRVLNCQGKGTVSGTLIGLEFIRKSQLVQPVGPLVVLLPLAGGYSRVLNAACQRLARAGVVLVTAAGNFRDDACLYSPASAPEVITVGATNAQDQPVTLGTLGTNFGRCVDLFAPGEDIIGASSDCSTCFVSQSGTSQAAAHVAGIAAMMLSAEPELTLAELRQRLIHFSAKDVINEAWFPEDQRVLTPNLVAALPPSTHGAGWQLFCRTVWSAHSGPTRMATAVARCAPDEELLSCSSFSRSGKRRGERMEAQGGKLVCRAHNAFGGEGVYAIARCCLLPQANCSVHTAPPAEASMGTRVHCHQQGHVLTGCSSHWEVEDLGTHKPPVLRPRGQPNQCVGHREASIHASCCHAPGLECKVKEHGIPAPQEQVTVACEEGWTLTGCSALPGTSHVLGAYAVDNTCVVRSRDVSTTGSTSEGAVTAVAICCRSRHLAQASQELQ
T3 sequence (Q8NBP7 31-152, chain 2 of 2): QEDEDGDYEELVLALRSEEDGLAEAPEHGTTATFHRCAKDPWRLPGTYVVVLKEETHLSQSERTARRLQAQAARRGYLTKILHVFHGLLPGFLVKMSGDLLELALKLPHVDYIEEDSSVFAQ

B1: 1B20 Fab (Fab, V domains shown)
VH: QVQLVQSGAEVKKPGESLKISCKGSGYSFTNYWISWVRQMPGKGLEWMGIIYPGDSYTNYSPSFQGQVTISADKSISTAYLQWSSLKASDTAMYYCARDYWYKPLFDIWGQGTLVTVSS
VL: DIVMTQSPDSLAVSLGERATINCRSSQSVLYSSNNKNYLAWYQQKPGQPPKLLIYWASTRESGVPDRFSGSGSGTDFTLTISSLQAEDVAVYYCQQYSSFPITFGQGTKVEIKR
notes: His-tagged Fab expressed in E. coli and purified by IMAC; also called 6CX1B20
Take B1: the “IC50, inhibition of PCSK9-dependent loss of cellular LDL-uptake (Exopolar assay, HEK cells)” value in [1] turned out to be 145 nM. The “IC50, inhibition of PCSK9-dependent loss of cellular LDL-uptake (Exopolar assay, HEK cells)” value in experiment [2] came to 152 nM. In addition, in [3], the IC50 stood at 25.8 nM. In [4], this molecule registered a Ka of 1.5e+09 M⁻¹, a Kd of 0.74 nM, a koff of 4.8e-05 s⁻¹ and a kon of 66000 M⁻¹ s⁻¹. Further, in experiment [5], the Ka amounted to 2e+09 M⁻¹, the Kd was found to be 0.51 nM, the koff was found to be 7.2e-05 s⁻¹ and the on-rate (kon) is 141000 M⁻¹ s⁻¹.

B2: 1B20 IgG (antibody, V domains shown)
VH: B1 VH
VL: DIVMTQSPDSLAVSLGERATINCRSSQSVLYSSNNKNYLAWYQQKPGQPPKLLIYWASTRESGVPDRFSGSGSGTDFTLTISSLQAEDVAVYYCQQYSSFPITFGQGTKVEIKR
notes: Full-length IgG2m4 with kappa light chain, expressed in HEK293 cells, purified on Protein A; also called 1B20 whole IgG; 1B20 IgG2m4
Consider B2, for which the “IC50, inhibition of PCSK9-dependent loss of cellular LDL-uptake (Exopolar assay, HEK cells)” value in experiment [1] was 22 nM. Also, the “IC50, inhibition of PCSK9-dependent loss of cellular LDL-uptake (Exopolar assay, HEK cells)” value in experiment [2] stood at 13 nM. Also, the IC50 in experiment [6] worked out at 2.8 nM. In addition, in experiment [7], the Ka is 1.4e+09 M⁻¹, the Kd came out at 0.89 nM, the off-rate constant (koff) was found to be 4.3e-05 s⁻¹ and the kon was found to be 53000 M⁻¹ s⁻¹. In experiment [8], this molecule displayed a Ka of 7.4e+08 M⁻¹, a Kd of 1.4 nM, a koff of 0.00012 s⁻¹ and a kon of 89000 M⁻¹ s⁻¹.

B3: 1B20 Fab variant N59K (Fab, V domains shown)
VH: B1 VH with N59K
VL: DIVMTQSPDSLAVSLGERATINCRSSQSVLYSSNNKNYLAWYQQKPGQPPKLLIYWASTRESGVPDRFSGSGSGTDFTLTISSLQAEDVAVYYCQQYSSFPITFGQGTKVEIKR
notes: Site-directed variant of the 1B20 Fab, 'mutations in the heavy chain'
As to B3, the Kd in [9] is 0.013 nM.

B4: 1B20 Fab variant W101A (Fab, V domains shown)
VH: B1 VH with W101A
VL: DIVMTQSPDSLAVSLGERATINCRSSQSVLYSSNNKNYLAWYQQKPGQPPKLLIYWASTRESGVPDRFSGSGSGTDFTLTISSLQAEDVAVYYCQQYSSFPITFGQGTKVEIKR
notes: as for B3
Consider B4, for which, in [9], the Kd was determined as 1.37 nM.

B5: 1B20 Fab variant W101F (Fab, V domains shown)
VH: B1 VH with W101F
VL: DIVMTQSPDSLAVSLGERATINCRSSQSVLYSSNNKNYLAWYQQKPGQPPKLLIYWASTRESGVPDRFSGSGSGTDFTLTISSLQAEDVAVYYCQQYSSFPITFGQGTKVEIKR
notes: as for B3
With B5, the affinity in [9], expressed as Kd, was 1.12 nM.

B6: 1B20 Fab variant N59R (Fab, V domains shown)
VH: B1 VH with N59R
VL: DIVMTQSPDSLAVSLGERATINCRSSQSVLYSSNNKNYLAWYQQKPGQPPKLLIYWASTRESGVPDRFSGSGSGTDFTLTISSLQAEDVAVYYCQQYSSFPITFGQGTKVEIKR
notes: as for B3
B6 returned a dissociation constant Kd in experiment [9] of 0.049 nM.

B7: 1B20 Fab variant W101Y (Fab, V domains shown)
VH: B1 VH with W101Y
VL: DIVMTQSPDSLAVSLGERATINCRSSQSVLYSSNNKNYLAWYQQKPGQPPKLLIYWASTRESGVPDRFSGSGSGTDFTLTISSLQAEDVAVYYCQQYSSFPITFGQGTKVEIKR
notes: as for B3
Take B7: binding in experiment [9] was put at a Kd of 0.78 nM.

B8: 1B20 Fab variant N59Q (Fab, V domains shown)
VH: B1 VH with N59Q
VL: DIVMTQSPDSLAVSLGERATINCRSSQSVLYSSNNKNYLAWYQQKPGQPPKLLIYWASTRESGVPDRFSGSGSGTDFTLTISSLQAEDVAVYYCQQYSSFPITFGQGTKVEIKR
notes: as for B3
Regarding B8, the Kd in experiment [9] was found to be 0.117 nM.
